The values below come from US11434299 (TENEOBIO, dated 2022).

The assay deals with T1, human BCMA (B-Cell Maturation Antigen) on NCI-H929 cells (human, UniProt Q02223 1-184).
T1 construct: whole, on cells; Endogenous BCMA on NCI-H929 myeloma cells; also called TNFRSF17; H929 cells (BCMA+, lambda-)
T1 sequence (looked up): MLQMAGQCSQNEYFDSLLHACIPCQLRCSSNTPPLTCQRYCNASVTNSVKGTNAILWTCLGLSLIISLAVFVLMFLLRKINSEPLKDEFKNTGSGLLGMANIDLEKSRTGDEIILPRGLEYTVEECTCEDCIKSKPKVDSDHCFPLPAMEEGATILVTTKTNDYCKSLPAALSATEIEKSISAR
The assay is described as follows: flow cytometry, HEK supernatants on NCI-H929 cells (BCMA+). The protocol:
Supernatants of all antibodies were also tested by flow cytometry for binding to RPMI-8226 cells (BCMA+, lambda+) and H929 cells (BCMA+, lambda−). The samples were measured by flow cytometry using a Guava easyCyte 8HT instrument from EMD Millipore and analyzed using guavaSoft. Bound antibodies were detected with goat anti-human IgG F(ab')_2 conjugated to PE (Southern Biotech 2042-09). All antibodies were diluted in PBS with 1% BSA. Positive staining was determined by comparison to staining with a human IgG1 isotype control. The NCI-H929 and RPMI-8226 cell lines are human multiple myeloma lines expressing human BCMA, which were obtained from the American Type Culture Collection (ATCC) and cultured according to ATCC recommendations.

B1: SEQ ID NO 51 (antibody, V domains shown)
VH: EVQLLESGGGLVQPGGSLRLSCAASGFTFSNYAMNWVRQAPGKGLEWVSGITGSGGSTYYADSVKGRFTISRDNSKNTLYLQMNSLRVEDTAVYYCVKDWNTTMITERGQGTLVTVSS
notes: UniAb: CH1 deleted, no light chain; HEK supernatant
For the molecule B1, the binding result was “binds”.

B2: SEQ ID NO 53 (antibody, V domains shown)
VH: EVQLLESGGGLVQPGGSLRLSCAASGFTFSNYAMNWVRQAPGKGLEWVSGIIGSGGSTYYADSVKGRFTISRDNSKNTLYLQMNSLRVEDTAVYYCVKDWNTTMITERGQGTLVTVSS
notes: as for B1
With B2, the binding result is “binds”.

B3: SEQ ID NO 52 (antibody, V domains shown)
VH: EVQLLESGGGLVQPGGSLRLSCAASGFTFSSYAMNWVRQAPGKGLEWVSGIVGGGGTSYYADSVRGRFTISRDNSKNTLYLQMNSLRAEDTAVYYCVKDWNTTMITERGQGTLVTVSS
notes: as for B1
Take B3: the binding result is “binds”.
